Results reported in a protein production outcome set (Wang et al. 2014).

Assay: label from the status in PepcDB records

SERRYKQLFDSGRDGIFVVQMDEEEGVAQIVEANWSAHEMFGYSQGAFEELAFASLVDKGEREGVERLLKELPLKGGALIESHFVLLEHRSIPIELSIQSFLLEEKRTLYVSARDIT
protein production: failed

MVKHIWDSERAAQLPKGVEELVYRSNLIGSDRTVCNWGGGNTSMKTTEKDFRGREIEVMWVKGSGSDLATMKAHNFSGLKLDDIRPLIKRDQMPDEEMVDYLSHCMIDSKHPRPSIETLLHAFLPYKHVDHTHPDAIISICCADNGKQIAEDIYGNRFVWVPYVRPGFTLSKMIAEGVANNPHAELVLMEKHGLVTWGETSETCYQKTISIIQEAEQYINDRINQHEVFGGKRYQPLPEDKR
protein production: not failed

MSIKIGLLGFGTVASGIPFLLKENGEKVFAASRDQLEIAKVLVKDDEEKDRLIAAGNDYNFVTNVDEILNDEEIQIVVELMGRIEPARTFITKALEAGKNVVSANKDLIATHGKELIALAQDKGVAFYYEAAVAGGIPILRTLANSLTSDKVTRILGVLNGTSNFMMTKMVDEGWSYEDALKTAQELGYAESDPTNDVEGYDAAYKAVILSQFGFGATIDFDDVSHKGITNISTDDVAVAQELGYVIKLVGDVREVESGISAEVSPTFLPKNHPLASVNDVMNAVFVESIGIGESMYYGPGAGQKPTATSVLADIIRIARRLSDGNVGKPFNEFRRDLPLANPADVKSNYYFALDTPDEKGKILHLSEIFNSEDISFEQVLQQKANGTTARIVVITHAMSKTQLKAVTEKLEAAEDFTVVNTLKVLSNLEHHHHHH
protein production: not failed

MGIELVMENAHWFWLSLGGLLLAAEMLGGSGYLLWSGLSAVLVGLLTWIMPLGWPWQGTIFAILTIVTALLWWYWLRKRTLSRPPSTLNQRGQQLVGLRATVSESVTNGFGRVNIGDSSWRVKSEQDLPAGTHVEVIAVDGITLHVRSIER
protein production: failed

MPAHSLSLYQYYRPPLDWQAQLAFYRLRAVAGMEWFSNTDNDCLEKIAQDKQALEYGRTLQIDDIRAVVHIIHEAHLHRFKLTLTFTPDSPIAGLQKLITQVRRILDLDADMQQIEHNLQRLTDLKLIPKSGLRIPGAGSLEHHHHHH
protein production: failed

MRPRPDAALAMSSGPPAARKPGVVQPALLNMSAWLRPEPGLTVVTPLVRALVLISAFSPQERWLGNGQLAQRTGLPPSTVSRIAQSLVHLGYLLHDGAERKYRLAPAVLGLGYAAIAHSAIQGLAGERMAAFARQHKVHVCLAARDRLDLVVLECRRSLECPVALPLHVGMRVGIAQSPMGWSMLAALPELERCYLLDNVERRMARDWSRLRRRVWEGMAQVGETGYCTSIGEWNPELGALATPVLLEGSSPFVLACIGTSQTMTRARVARELGPRLLAMREALQTEFNVIGH
protein production: failed

GQLAQDGVPEWFHGAISREDAENLLESQPLGSFLIRVSHSHVGYTLSYKAQSSCCHFMVKLLDDGTFMIPGEKVAHTSLDALVTFHQQKPIEPRRELLTQPCRQKD
protein production: not failed

MTGKGQGGSWVPGVVSATDRGNFHASPTTATVLDIIGRILRAPLSATDTEIETALAQVADACSADVAQVCRAGTTGPLEPIHSWVRDGHIVLNIQDLCKFCPGSDQTGPVMLRDLKDLPEGPARDRLAGMELRSLVAVPMLRHGVLAGRVLLGWQTASSDLRPEDLAALQSLAEAMHAAAERRESERLTTEAAAALQEDRLLLESILRTSTSAILAFDADARIVFANDEAAALLGTDANRLPGCTLEGVGCRLLSREGEPLPPEALPVARAIAEGQTLRDLHHVLMAADGRQRILSINAAPVAAGAATAVRVVATIDDVTGQVSADSALRTALAEAHQLAFFDPLTGLYNRRGIVEVLRDCLQTCAREKAFLSLLYIDLDGMRQVNGTRGHWLGDRVLQALGARLDNLRQDGGDLGRISADEFVLTCGETHPDAAGAVAAAEAEAQRILESLREPFVVDGLTLEVTASIGLAAISAEDSVEGLLKGVDLAVMAAKAAGGDRACAYRADMEQDMVGRVALAQELREAIRRDEFRIYFEPMVSLGETGLEIVGQEALIRWEHPQRGLLAPIAFIPFAEETGFIRDIDRWVLRAAAQELARWAEDPARRHLGVSINISSAQFLSEEFGQMVREVLDETGVDPTRIELEVTEGTLLSNLGLARTTMMDLRSLGISIALDDFGTGFSSLSYLRDLPVDVLKIDRSFLGGLSDSKANRTILEGIIGLASGLGVALVAEGVETPAQFAWLRAKGCRTFQGYLFGRPVDEAQTQLAPEVSALGGHGGDRAVSGQIKG
protein production: failed

MNNQYKLIEEFNNAEFDKSLKWFSPPKDWEVNSNKSKLIVKPDKETDFWQKTHYEFQVDNGHFLYYELNGDFRLITKVKSKPANRYDQAGLMVRFSKDTWLKTSVEYIPDDNSKLGVVVTKNGYSDWSSQEFFGDLNSLYYRITRRGNNYYVDYSLDGDLWKQIRMVYLFEEKDCMKVGIYACSPQGDGYEAEFEFIKIENIDDNTKVY
protein production: failed
